# Results as given in the DeepSol protein solubility set.
# Experiment: soluble on expression in E. coli; label from the status in PepcDB or PDB records
row,Sequence,soluble on expression in E. coli
1,MDYWEWKTDGAGLEADEVCITVQHGVTLYDKNEKTQRQNGKLSLTTHHLRYNDEADISTVLQLPLELVRRSGQAPSISSGFGPFSSAKIIVPLPKNAYVKLSFRSGGVDNFYAALVGALKKKTWLQTKTEAAASGRGSSSGASPASTTPVPNSRPPPPVPRGFGIAGVQQASLQSAAMSETLKDIDDVMNKASKLVNNIRRLRERSEAAAAAGSDAGSETAVERTTIESIESTLGLGAIVTRNHSNGSDSRFYRDLAVEMHTWMTHECNSKLFNDMPVVPLIELFALYNKARGGDLVSPLDVLNACTYMAAKMSSSCYDLVTLPSGRKALVNRDDSLLLAKLTTVLGPQLVNSKGSPVQDAWTKTSSQQQQRSGDASSLVRVSTTSDFPKASRDLKSVSDVSLAEKMQVATEVAADILTLLMLKGYLCCMDTGFDCYVYTWNIFVF,not soluble
2,MGSDKIHHHHHHAQSDGWSPKDHNLIKSVREDGRFLSSYGVVHAMLRNTEPRYAFHRDFSPKEFRKWQKGLRHAMEEIMKFPQIKNSPAPVCIKREQREGYRLEKWEFYPLPKCVSTFLVLIPDNINKPVPAILCIPGSGGNKEGLAGEPGIAPKLNDRYKDPKLTQALNFVKEGYIAVAVDNPAAGEASDLERYTLGSNYDYDVVSRYLLELGWSYLGYASYLDMQVLNWMKTQKHIRKDRIVVSGFSLGTEPMMVLGTLDTSIYAFVYNDFLCQTQERAEVMTMPDKNGRRPFPNSIRHLIPDFWKNFNFPDIVAALAPRPIILTEGGLDRDLDLVRKAYAIVGTPDNVKIYHYKKFSDPDTRKNVEYLPEGLDRNEYFRMVNVDGPNHYFKSELVVPWLRKLLEER,not soluble
3,MPVSGYLRIKGKRVGVEIFPFQAYHSQIKEVRQQVGNMAILPLRTQVRGPAPSANIESDIIDESLYYFKANVFFRTYEIKSDVDRVLIYVTLYITECLKKLNRSTSKAQGQQDMYSLAISKFDIPGDAGFPLNAVYAKPQTAQDADLMRQYLLQLRHETGNRVLEKVFNTEDGKPNKWWTCFAKKKFMEKSLAGPGQLEHHHHHH,not soluble
4,MGSDKIHHHHHHGQPSNDKKNVLPDWAFGGFERPQGANPVISPIENTKFYCPMTQDYVAWESNDTFNPAATLHDGKIVVLYRAEDKSGVGIGHRTSRLGYATSSDGIHFKREKTPVFYPDNDTQKKLEWPGGCEDPRIAVTAEGLYVMTYTQWNRHIPRLAIATSRNLKDWTKHGPAFAKAYDGKFFNLGCKSGSILTEVVNGKQVIKKIDGKYFMYWGEEHVFAATSEDLVNWTPYVNTDGSLRKLFSPRDGHFDSQLTECGPPAIYTPKGIVLLYNGKNSASRGDKRYTANVYAAGQALFDANDPTRFITRLDEPFFRPMDSFEKSGQYVDGTVFIEGMVYYKDKWYLYYGCADSKVGMAIYNPKKPAAADPLP,not soluble
5,MSLIVITGASSGLGAELAKLYDAEGKATYLTGRSESKLSTVTNCLSNNVGYRARDLASHQEVEQLFEQLDSIPSTVVHSAGSGYFGLLQEQDPEQIQTLIENNLSSAINVLRELVKRYKDQPVNVVMIMSTAAQQPKAQESTYCAVKWAVKGLIESVRLELKGKPMKIIAVYPGGMATEFWETSGKSLDTSSFMSAEDAALMIHGALANIGNGYVSDITVNREGHHHHHH,soluble
6,MRVIKIQTKGDVRISYAIETIRINEWTKAIAEVIFEKDGVPEWEIEAVSRMSSDYVGSLGSEFEILDVSIDRRTNSYKIKGKYEGFYLAGTPIEAIEKDIVESVLSLRFESLDVYEVNIEDPFEDYDPSEYWELMDWEELEHHHHHH,not soluble
7,SLRITAIREIAVPLQGNISNSLVSFAEHTVSLVALVSDVVRDGRPLIGYAFDSIGRYAQPGLMRERFIPRLLQAAPHELLDDGGQAFDPARASAIMLRNEKPGGHGDRAAAVGALELAFWDLNAKLRDEPAYCTIARHVGRPAQAGATQVYAAGGYYYDSGDPLQRLRDEFRGYLDQGFVKFKMKIGGASLADDLARIEAALGVAGEGANLAVDANGRFDLDTALAYARALEPYGLRWYEEIGDPLDYHLNSLVAQAYAGTIATGENLFSLPDVRNLLHFAGVRPGRDILQMDPGLSYGLTEYLRMMAAVEAAGFGRSCLHPHGGHLINLHIAAGLGLGGCEAYPGVFQPFGGYPAACALGAGQVRPTDAPGFGLEQKQELAPYISVLAHG,soluble
8,MSLAVERLFGTNGIRGIPNDDMSPDFAMSVGKAIGTYVSGEIAFGTDTRLTGDMIKNAVIAGILSTGISVIDLGVLPTPAIQYYSKKHGIYAVVITASHNPPQYNGIKVIDKDGTELERPGEEKIEEIFYSKAFRVVKWENIGRIRQVSDAIDIYINGVISNVDSDNIKSHAFKVLADAGNGAAYYSTPKLLEKLGCSITTLNANPDGRFTARNAEPVPENLVNLISLMKSGRFDLGIAHDGDADRAVFIDEKGNFIDGDRMLALITKYIAKAGDVVVTPVSSSDTIADICNAIGAKLIRTKVGAPIVARAMIDNGATIGGEENGGVIYGKHQYCRDGAMTVSLVLNLMASTNKKLSELISELPVYYLIKKKVERRVDWPSLARELKKGERVDETDGIKILKDDGWILIRPSGTEKILRIYAHSSDFELANKYCEQYIRKVNDIQDKLSEGHHHHHH,not soluble
9,MANHELDQLRKQVDEINLQLLHLLNKRGEIVQKIGEQKQVQGTKRFDPVREREVLDMIAENNEGPFETSTVQHIFKTIFKASLELQEDDNRKALLVSRKKKQENTIVDVKGELIGNGTQTFIMGPCAVESLEQVRQVGQAMKDQGLKLMRGGAFKPRTSPYDFQGLGVEGLQILRQVADEFDLAIISEILNPNDVEMALDYVDVIQVGARNMQNFDLLRAVGKVNKPVLLKRGLAATIDEFINAAEYIIAQGNDQIILCERGIRTYERATRNTLDISAVPILKKETHLPVVVDVTHSTGRRDLLLPTAKAALAIGADAVMAEVHPDPAVALSDSAQQMDIPEFHRFMEELKGFKNKLS,not soluble
10,MRERVCVSHCVLQRTVVCRPRTFVRERIRTQFKLVSLFITMPKSLRKRFVLVSIDDNIEQINAARKLRRYLTNNHLNHIFSSTPEEMKEYLDKLDSGTFNFRETAEEQKSVDPFSEANQPAIQMSSNQEILEKWARGTFAENSDALKLLLEPTNIEEDAVLDDHESENIVNNIPQLFMVNSMDAETPNDSIIVENGKEDQLDMAYCSLCKHEVETGRNRNTKIRKQTEHVLDAHPESEFLNVDIAKRYECVHCLRTLPVSKSPCEHISEHHDKTHVEIEFRDLWSNEQVSTFNSVMEKCFLRHLPVPRSRRIRNGNTWYLSEKASYRIVRGGEIIHISTVADKSKTDNGKESKQSRLDNSERGKPTRSMDSDYDIFDNQDETDSEEGARSESIDTGNKVSESEPGSLQSVIDLE,not soluble
11,MGSDKIHHHHHHMIDPESLEALEAVVDAGSLSAAAGQLNKAVSAVGYHLRRLEEQIGVPLLDRSGYRLALTPEGKSVLAEGRPILERLRALGTFAERYHGGWEHQLRIVYDGALPAEVVIGAINALVEAGAPTHIELNVAYLGAVPFEFDRKQADVMIATAWEPRLDLIGHRLATLGFSLCCAAGHPLTMRTNVSLEELQRETELIIPGLAEDRSFDARHFRSRRILKVSDFNTKLIAIRRGLGFGWLPDYLASDLVRKGNLARVRLEGGNSYELQPVFALHRGAAPGRARQMLLDMLLLATWDTYVKPE,not soluble
12,MGSDKIHHHHHHMGLLAGVEISDVPLKKIVTVCLAVLVAGCAGPQTQELLGSAIVAAPVTEIAGNHSIFIATTRKKSDDPNKVFDGERSATLNYARVNVTVPGLHQTGQIERRSRGKSDDPAKYFMASEVVGYDTQPKFSSALNADIAARGGRVMVFVHGYNTGFDDAVYRLTQIVHDSGYPGTPVLFSWASGAKTTDYVYDKESASAARDQLEVTLRMLQQSGARRIDIVAHSMGTWVTMETLRQMAISGDRDLGGKLGDVVLASPDIDVDVFKSQMRRYGKPDKPFILLLSDDDRALRLSGLIAGSRPRVGDYKDAADLASYGVTVVDLSEVKGSDSFNHTKFADNPVLVKMIGQRLREDDGFASDRDVTDRISLLGQ,not soluble
13,MGSDKIHHHHHHMKQPNYYQDVKQFHQTFHHPGADQPTAIPLDRGVKRATWTAEEAVVEFLHQSSQNETEFLAAIETFKAGLDQAVKKSLKETYPVTEVERLVGQGDALTDALYFIMGSFVEAGLEPGPLFEIVQQANMAKLGPDGQPIFRESDQKVMKPDGWLPPEPQLEAEVVRQMKEKA,not soluble
14,GAMGSSRKSKAELQSEERKRIDELIESGKEEGMKIDLIDGKGRGVIATKQFSRGDFVVEYHGDLIEITDAKKREALYAQDPSTGCYMYYFQYLSKTYCVDATRETNRLGRLINHSKCGNCQTKLHDIDGVPHLILIASRDIAAGEELLYDYGDRSKASIEAHPWLKH,soluble
